Laboratory results: patent publication US20220025056A1 (INNATE PHARMA, published 2022)

Experiments:
[1] = molecular target: T1, human ILT6 (LILRA3) on CHO cells (human, UniProt Q8N6C8 24-434); test: flow cytometry, CHO transfectants
T1 construct: also called CHO ILT6 cell line; human ILT-6 polypeptide

[2] = molecular target: T2, anchored ILT2 D2-D3-D4 domain protein (human, UniProt Q8NHL6 122-650); test: flow cytometry, CHO cells with anchored ILT2 domain proteins
T2 construct: on CHO cells; the entry includes leader remnant, V5 tag, and the ILT2 transmembrane and cytoplasmic parts
T2 sequence (Q8NHL6 other isoform, or with tags, fused parts or gaps limits assumed): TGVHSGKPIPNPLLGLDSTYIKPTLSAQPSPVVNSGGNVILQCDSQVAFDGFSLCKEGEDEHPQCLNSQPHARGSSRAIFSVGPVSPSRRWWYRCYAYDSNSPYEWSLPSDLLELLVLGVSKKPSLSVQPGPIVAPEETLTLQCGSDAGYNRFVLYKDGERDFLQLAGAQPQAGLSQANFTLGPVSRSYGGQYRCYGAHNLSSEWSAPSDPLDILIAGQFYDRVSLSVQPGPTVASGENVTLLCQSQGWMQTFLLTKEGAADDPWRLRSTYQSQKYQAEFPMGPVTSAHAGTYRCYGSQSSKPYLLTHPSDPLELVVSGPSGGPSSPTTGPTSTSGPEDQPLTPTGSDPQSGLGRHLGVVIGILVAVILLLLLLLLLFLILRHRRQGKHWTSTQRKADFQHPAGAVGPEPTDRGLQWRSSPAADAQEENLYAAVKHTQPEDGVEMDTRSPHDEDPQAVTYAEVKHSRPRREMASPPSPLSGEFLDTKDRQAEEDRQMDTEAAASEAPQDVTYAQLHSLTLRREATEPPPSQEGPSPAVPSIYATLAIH

[3] = molecular target: T3, anchored ILT2 D2 domain protein (human); test: as above
T3 construct: on CHO cells; the entry includes leader remnant, V5 tag and CD24 GPI anchor signal
T3 sequence (chain, as listed by the source limits assumed): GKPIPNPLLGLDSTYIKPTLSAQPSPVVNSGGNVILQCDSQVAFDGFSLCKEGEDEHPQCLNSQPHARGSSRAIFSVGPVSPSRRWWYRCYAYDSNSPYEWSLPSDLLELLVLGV

[4] = molecular target: T4, anchored ILT2 D3-D4 domain protein (human, UniProt Q8NHL6 223-650); test: as above
T4 construct: on CHO cells; the entry includes leader remnant, V5 tag, and the ILT2 transmembrane and cytoplasmic parts
T4 sequence (Q8NHL6 other isoform, or with tags, fused parts or gaps limits assumed): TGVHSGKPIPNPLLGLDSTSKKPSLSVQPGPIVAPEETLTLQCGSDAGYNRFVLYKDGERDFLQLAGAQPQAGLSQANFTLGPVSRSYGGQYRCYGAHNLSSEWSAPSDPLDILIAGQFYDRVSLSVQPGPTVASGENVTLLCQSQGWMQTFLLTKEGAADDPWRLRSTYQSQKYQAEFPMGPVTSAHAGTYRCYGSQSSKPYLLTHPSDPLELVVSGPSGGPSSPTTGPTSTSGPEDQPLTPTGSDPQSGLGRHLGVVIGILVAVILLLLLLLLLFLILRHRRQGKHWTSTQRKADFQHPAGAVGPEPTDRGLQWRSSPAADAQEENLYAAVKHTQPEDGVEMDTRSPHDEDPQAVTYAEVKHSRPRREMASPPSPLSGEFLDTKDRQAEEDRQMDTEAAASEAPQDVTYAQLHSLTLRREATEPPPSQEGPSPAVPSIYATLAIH

[5] = molecular target: T5, anchored ILT2 D3 domain protein (human); test: as above
T5 construct: on CHO cells; the entry includes leader remnant, V5 tag and CD24 GPI anchor signal
T5 sequence (chain, as listed by the source limits assumed): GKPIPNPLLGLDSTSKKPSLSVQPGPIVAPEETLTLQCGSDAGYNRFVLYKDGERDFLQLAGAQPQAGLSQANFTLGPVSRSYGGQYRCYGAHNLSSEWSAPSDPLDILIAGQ

[6] = molecular target: T6, anchored ILT2 D2-D3 domain protein (human, UniProt Q8NHL6 122-321); test: as above
T6 construct: on CHO cells; the entry includes leader remnant, V5 tag and CD24 GPI anchor signal
T6 sequence (Q8NHL6 other isoform, or with tags, fused parts or gaps limits assumed): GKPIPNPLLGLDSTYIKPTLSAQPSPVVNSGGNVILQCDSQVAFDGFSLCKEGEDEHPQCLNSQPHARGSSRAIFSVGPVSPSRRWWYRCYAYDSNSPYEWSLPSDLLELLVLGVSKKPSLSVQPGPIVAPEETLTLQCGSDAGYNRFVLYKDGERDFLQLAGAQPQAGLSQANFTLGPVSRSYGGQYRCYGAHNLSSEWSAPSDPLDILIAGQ

[7] = molecular target: T7, anchored ILT2 D4 domain protein (human, UniProt Q8NHL6 322-650); test: as above
T7 construct: on CHO cells; the entry includes leader remnant, V5 tag, and the ILT2 transmembrane and cytoplasmic parts
T7 sequence (Q8NHL6 other isoform, or with tags, fused parts or gaps limits assumed): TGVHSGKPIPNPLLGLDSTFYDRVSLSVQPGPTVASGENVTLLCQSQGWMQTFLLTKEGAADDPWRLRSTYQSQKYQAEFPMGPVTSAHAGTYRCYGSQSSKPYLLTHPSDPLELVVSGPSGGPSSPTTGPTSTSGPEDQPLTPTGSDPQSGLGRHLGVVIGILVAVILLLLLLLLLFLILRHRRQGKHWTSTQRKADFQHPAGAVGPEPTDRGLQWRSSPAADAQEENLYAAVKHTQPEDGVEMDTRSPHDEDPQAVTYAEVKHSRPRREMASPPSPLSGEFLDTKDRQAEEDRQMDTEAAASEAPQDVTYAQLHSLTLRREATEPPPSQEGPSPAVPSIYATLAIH

[8] = molecular target: T8, biotinylated BirA-tagged ILT2 protein tetramerised on APC-conjugated streptavidin (human, UniProt Q8NHL6 24-458, limits assumed, 1 biotin molecule per ILT2 protein (BirA tag)); test: flow cytometry blocking assay: ILT2-streptavidin-APC complexes pre-incubated with antibody, then added to WIL2-NS cells expressing HLA-A2; blocked ligand HLA-A2
T8 construct: ratio 1 streptavidin per 4 ILT2 protein; streptavidin-APC not written as a chain; also called ILT2-SA tetramers; recombinant biotinylated ILT2
T8 sequence (Q8NHL6 24-458 limits assumed): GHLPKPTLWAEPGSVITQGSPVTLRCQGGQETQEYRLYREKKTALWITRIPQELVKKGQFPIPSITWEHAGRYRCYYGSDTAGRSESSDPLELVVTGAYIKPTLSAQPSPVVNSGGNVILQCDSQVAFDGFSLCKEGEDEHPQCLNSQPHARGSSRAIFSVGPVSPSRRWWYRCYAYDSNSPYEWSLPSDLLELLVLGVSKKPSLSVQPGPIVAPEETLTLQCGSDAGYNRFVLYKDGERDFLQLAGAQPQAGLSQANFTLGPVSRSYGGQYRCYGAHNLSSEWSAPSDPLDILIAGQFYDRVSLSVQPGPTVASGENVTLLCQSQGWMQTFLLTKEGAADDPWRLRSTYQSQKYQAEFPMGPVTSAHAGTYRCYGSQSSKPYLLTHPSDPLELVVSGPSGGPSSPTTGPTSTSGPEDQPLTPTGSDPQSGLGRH

[9] = molecular target: T9, ILT2 mutant 2 (human, UniProt Q8NHL6 24-650); test: flow cytometry, ILT2 point mutants
T9 construct: transfected in HEK293T cells; also called M2
T9 sequence (Q8NHL6 other isoform, or with tags, fused parts or gaps mutant): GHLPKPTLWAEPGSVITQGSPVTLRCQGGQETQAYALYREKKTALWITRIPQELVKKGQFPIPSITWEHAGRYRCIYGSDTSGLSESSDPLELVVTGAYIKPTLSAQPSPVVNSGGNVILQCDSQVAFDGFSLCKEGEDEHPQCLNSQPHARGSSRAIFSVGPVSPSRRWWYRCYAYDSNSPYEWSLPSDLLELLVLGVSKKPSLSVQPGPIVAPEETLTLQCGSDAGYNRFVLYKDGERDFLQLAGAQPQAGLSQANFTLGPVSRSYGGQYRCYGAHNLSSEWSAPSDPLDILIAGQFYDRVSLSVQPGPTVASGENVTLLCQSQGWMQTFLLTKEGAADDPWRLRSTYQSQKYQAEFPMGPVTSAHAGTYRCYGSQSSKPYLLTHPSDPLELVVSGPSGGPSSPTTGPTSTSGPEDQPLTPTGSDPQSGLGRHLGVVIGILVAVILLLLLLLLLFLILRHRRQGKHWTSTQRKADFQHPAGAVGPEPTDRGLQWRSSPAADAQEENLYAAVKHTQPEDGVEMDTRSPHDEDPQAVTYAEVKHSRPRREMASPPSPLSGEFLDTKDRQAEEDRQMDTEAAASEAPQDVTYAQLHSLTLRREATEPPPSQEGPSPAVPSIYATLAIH

[10] = molecular target: T10, ILT-2_6xHis recombinant protein (human, UniProt Q8NHL6 24-458); test: SPR, antibody captured on Protein-A, soluble ILT2 analyte; 1:1 Binding
T10 construct: monomers purified by SEC; also called recombinant 6xHIS tagged ILT2; recombinant human ILT2 proteins
T10 sequence (Q8NHL6 other isoform, or with tags, fused parts or gaps limits assumed): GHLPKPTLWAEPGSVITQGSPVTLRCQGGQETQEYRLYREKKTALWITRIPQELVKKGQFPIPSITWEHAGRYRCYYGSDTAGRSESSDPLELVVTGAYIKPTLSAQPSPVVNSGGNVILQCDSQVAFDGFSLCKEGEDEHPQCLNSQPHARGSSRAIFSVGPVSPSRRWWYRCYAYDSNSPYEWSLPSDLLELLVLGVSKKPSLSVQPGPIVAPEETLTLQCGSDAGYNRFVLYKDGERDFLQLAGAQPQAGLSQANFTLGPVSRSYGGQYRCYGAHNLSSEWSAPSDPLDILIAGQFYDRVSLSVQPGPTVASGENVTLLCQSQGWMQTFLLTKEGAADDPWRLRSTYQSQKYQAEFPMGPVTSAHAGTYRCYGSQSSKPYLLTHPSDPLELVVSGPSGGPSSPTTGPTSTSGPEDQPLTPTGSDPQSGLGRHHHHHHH
Protocol: Measurements were performed on a Biacore T200 apparatus (Biacore GE Healthcare) at 25° C. In all Biacore experiments HBS-EP+(Biacore GE Healthcare) and NaOH 10 mM served as running buffer and regeneration buffer respectively. Sensorgrams were analyzed with Biacore T100 Evaluation software. Protein-A was purchased from (GE Healthcare). Human ILT2 recombinant proteins were cloned, produced and purified at Innate Pharma. Protein-A proteins were immobilized covalently to carboxyl groups in the dextran layer on a Sensor Chip CM5. The chip surface was activated with EDC/NHS (N-ethyl-N′-(3-dimethylaminopropyl) carbodiimidehydrochloride and N-hydroxysuccinimide (Biacore GE Healthcare)). Protein-A was diluted to 10 μg/ml in coupling buffer (10 mM acetate, pH 5.6) and injected until the appropriate immobilization level was reached (i.e. 600 RU). Deactivation of the remaining activated groups was performed using 100 mM ethanolamine pH 8 (Biacore GE Healthcare). […] For blank subtraction, cycles were performed again replacing ILT2 proteins with running buffer. The monovalent affinity analysis was conducted following a regular Capture-Kinetic protocol as recommended by the manufacturer (Biacore GE Healthcare kinetic wizard). Seven serial dilutions of human ILT2 proteins, ranging from 1.95 nM to 250 nM were sequentially injected over the captured antibodies and allowed to dissociate for 10 min before regeneration. The entire sensorgram sets were fitted using the 1:1 kinetic binding model or two state reaction model, as a function of the profile of the curves.

T1 sequence (Q8N6C8 other isoform, or with tags, fused parts or gaps): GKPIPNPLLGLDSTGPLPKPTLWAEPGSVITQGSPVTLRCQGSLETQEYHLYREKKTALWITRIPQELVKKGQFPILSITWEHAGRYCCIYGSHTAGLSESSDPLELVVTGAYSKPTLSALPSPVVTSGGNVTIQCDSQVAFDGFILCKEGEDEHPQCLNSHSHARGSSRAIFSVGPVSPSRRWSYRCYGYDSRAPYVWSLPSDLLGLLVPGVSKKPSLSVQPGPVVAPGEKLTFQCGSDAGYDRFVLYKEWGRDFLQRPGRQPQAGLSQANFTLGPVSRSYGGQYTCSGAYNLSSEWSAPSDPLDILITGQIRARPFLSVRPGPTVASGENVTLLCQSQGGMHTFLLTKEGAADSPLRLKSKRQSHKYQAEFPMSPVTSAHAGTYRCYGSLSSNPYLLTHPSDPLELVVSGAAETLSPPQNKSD

B1: 48F12 (antibody, human IgG1, V domains shown)
VH: QVQLKESGPGLVAPSQSLSITCTVSGFSLTSYGVSWVRQPPGKGLEWLGIIWGDGSTNYHSALVSRLSISKDNSKSQVFLKLNSLQTDDTATYYCAKPNWDYYAMDYWGQGTSVTVSS
VL: DIQMTQTTSSLSASLGDRVTISCRASQDISNYLNWYQQKVDGTVKLLISYTSRLHSGVPSRFSGSGSGTDYSLTISNLEQEDIATYFCQQGITLPLTFGAGTKLELK
[1]
  binding result: no binding
[2]
  binding result: no binding
[3]
  binding result: no binding
[4]
  binding result: no binding
[5]
  binding result: no binding
[6]
  binding result: no binding
[7]
  binding result: no binding
[8]
  IC50 (read off the curve): ~0.1 µg/mL
[9]
  binding result: no binding
[10]
  Kd: 0.2 nM
  koff: 0.0001 s⁻¹
  kon: 500000 M⁻¹ s⁻¹
